Results: article PMC10922771

Key:
Assay in all cases: FXase
[1] = molecular target: activated ET9 (ET9a; FIX-403 with p.Arg384Leu) (human) (UniProt P00740)
[2] = molecular target: activated FIX-403 (FIXa-403) (human) (UniProt P00740)
[3] = molecular target: activated human factor IX (hFIXa) (human) (UniProt P00740)
[4] = molecular target: activated human factor IX Padua (hFIXa-Padua, p.Arg384Leu) (human) (UniProt P00740)

Kd [1]: 0.26 nM | Kd [2]: 2.08 nM | Kd [3]: 7.8 nM | Kd [4]: 1.08 nM
Substance: activated factor VIII (FVIIIa), from Advate, recombinant full-length FVIII activated with thrombin (complex)
